Kd data for one molecule are collected here from patent US20030069395A1 (DYAX, published 2003).

A value given as a limit tells only on which side of the number the result lay.

The target in assay [1] is T1, human serum albumin (HSA) (human, UniProt P02768 25-609).
T1 construct: also called caprylate-biotinylated-HSA
Description: fluorescence anisotropy; pH 7.4, 0.14 M NaCl, 0.1% caprylate. How it is done: (§1) Affinity determinations were made by first labeling polypeptides on the C-terminal end with NHS-fluorescein. Fluorescence anisotropy measurements were performed in 384-well microplates in a volume of 10 μl in binding buffer using a Tecan Polarion fluorescence polarization plate reader. The concentration of fluorescein labeled peptide was held constant (20 nM), and the concentration of HSA was varied. For pH 6.2, 7.1, and 7.4 binding conditions, a 3 mM phosphate, 0.01% Tween-20 buffer was used. For pH 9.1 binding conditions, a 3 mM sodium bicarbonate buffer, 0.01% Tween-20 nonionic detergent buffer was used. Once NaCl was added to any of these buffers, their pH was adjusted again to achieve the original pH. The binding mixtures were equilibrated for 10 minutes in the microplate at 30° C. prior to performing the measurement. The observed change in anisotropy was fit to the equation below via nonlinear regression to obtain the apparent KD. This equation assumes that the peptide and HSA form a reversible complex with 1:1 stoichiometry.
Once all the positive phage isolates were sequenced, peptides corresponding to the display peptide were synthesized. A small amount of constant phage sequence surrounding each varied amino acid sequence region was retained and either a -GGGK-NH₂ (SEQ ID NO: 24) amino acid sequence or -X-K-NH₂ C-terminal tail was added to each peptide, where X is 6-aminohexanoic acid and K-NH₂ is an amidated terminal lysine residue. The constant phage sequence was retained because these residues can often play a role in target binding. To determine its affinity for HSA , each peptide was labeled with fluorescein on the C-terminal lysine side chain.
For orientation: Fluorescence polarisation rises when a labelled molecule tumbles more slowly, as on binding a larger partner.

The target in assay [2] is T1, human serum albumin (HSA). Description: fluorescence anisotropy; pH 6.2, no NaCl, no caprylate. On the procedure: as §1
The target in assay [3] is T2, bovine serum albumin (BSA) (Bovine, UniProt P02769 25-607). Description: fluorescence anisotropy; PBS, pH 7.4, 0.14 M NaCl.
Assay [4] has as its target T3, murine serum albumin (MSA) (Mouse, UniProt P07724 25-608).
T3 construct: also called mouse serum albumin; Mouse
Kind of assay: fluorescence anisotropy; PBS, pH 7.4, 0.14 M NaCl.

Assay [5] deals with T4, rhesus serum albumin (Rhesus, UniProt Q28522 17-600). Description: fluorescence anisotropy; PBS, pH 7.4, 0.14 M NaCl.
In assay [6] the target is T5, goat serum albumin (GSA) (Goat).
T5 sequence (P85295 whole entry, looked up): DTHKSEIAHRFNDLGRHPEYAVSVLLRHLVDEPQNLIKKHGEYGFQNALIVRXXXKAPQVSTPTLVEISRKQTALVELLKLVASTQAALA
Description: fluorescence anisotropy; PBS, pH 7.4, 0.14 M NaCl.

The target of assay [7] is rat serum albumin (Rat, UniProt P02770 25-608). Description: fluorescence anisotropy; PBS, pH 7.4, 0.14 M NaCl.
Assay [8] deals with T6, pig serum albumin (Pig, UniProt P08835 25-607). Description: fluorescence anisotropy; PBS, pH 7.4, 0.14 M NaCl.
For assay [9], the target named is T1, human serum albumin (HSA). Kind of assay: fluorescence anisotropy; PBS, pH 7.4, 0.14 M NaCl.
In assay [10] the target is T7, chicken ovalbumin (Chicken, UniProt P01012 2-386).
T7 construct: Negative control; also called Chicken (egg)
T7 sequence (looked up): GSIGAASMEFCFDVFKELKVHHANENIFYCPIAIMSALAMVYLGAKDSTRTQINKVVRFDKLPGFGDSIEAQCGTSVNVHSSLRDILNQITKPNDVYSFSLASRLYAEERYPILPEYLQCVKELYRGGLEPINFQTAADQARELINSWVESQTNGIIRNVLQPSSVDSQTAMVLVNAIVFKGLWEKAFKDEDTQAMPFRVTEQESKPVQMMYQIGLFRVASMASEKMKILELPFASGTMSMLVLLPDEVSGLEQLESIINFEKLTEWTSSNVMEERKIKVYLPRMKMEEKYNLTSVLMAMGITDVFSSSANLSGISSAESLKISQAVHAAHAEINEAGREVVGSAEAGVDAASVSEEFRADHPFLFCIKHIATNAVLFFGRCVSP
Description: fluorescence anisotropy; PBS, pH 7.4, 0.14 M NaCl; negative control.

The target in assay [11] is T7, chicken ovalbumin. Description: fluorescence anisotropy; 3 mM phosphate, pH 6.2, 0 M NaCl; negative control.
Assay [12] addresses T1, human serum albumin (HSA). Description: fluorescence anisotropy; pH 7.4, 0.14 M NaCl, no caprylate. On the procedure:
as §1

Assay [13] addresses T1, human serum albumin (HSA). Description: fluorescence anisotropy; pH 6.2, 10 mM NaCl. On the procedure: as §1
For assay [14], the target named is T2, bovine serum albumin (BSA). Description: fluorescence anisotropy; 3 mM phosphate, pH 6.2, 0 M NaCl.
Assay [15] concerns the target T3, murine serum albumin (MSA). The assay is described as above.
For assay [16], the target named is T4, rhesus serum albumin. Described as above.
The target in assay [17] is T5, goat serum albumin (GSA). The description is as above.
The target in assay [18] is T6, pig serum albumin. The assay is described as above.
Assay [19] has as its target T1, human serum albumin (HSA). The assay is described as above.
The target in assay [20] is T1, human serum albumin (HSA). Description: fluorescence anisotropy; pH 6.2, 0.14 M NaCl, no caprylate. How it is done: as §1

T6 sequence (P08835 25-607 limits assumed): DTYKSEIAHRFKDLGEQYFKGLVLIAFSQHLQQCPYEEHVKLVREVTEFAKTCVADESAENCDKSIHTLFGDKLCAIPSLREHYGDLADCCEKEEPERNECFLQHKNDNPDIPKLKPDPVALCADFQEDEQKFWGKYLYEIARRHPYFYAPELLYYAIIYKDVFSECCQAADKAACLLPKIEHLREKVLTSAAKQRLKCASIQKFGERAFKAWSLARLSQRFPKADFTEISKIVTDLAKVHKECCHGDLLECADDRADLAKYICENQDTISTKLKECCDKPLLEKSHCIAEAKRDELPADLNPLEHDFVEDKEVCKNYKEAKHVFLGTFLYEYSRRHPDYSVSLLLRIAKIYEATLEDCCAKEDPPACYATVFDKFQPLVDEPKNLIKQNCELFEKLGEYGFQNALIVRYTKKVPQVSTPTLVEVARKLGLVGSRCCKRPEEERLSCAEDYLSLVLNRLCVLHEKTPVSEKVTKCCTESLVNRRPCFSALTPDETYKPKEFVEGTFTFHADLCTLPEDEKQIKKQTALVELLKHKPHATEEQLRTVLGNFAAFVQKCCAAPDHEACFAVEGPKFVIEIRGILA
T4 sequence (Q28522 17-600 limits assumed): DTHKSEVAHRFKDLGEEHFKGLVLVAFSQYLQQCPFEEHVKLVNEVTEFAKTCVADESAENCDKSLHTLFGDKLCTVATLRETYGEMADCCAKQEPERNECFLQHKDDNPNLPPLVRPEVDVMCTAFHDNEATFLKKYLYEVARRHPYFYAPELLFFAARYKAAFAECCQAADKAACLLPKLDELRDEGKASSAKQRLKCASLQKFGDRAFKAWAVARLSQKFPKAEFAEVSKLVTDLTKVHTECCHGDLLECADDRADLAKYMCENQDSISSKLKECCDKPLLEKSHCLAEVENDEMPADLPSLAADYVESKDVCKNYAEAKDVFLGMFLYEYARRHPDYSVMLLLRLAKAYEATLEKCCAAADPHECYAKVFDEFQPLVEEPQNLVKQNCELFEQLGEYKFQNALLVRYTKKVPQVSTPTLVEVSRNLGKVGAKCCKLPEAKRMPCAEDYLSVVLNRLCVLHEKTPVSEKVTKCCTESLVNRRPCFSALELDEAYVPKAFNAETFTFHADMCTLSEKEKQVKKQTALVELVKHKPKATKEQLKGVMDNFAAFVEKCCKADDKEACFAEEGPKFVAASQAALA
T2 sequence (P02769 25-607 limits assumed): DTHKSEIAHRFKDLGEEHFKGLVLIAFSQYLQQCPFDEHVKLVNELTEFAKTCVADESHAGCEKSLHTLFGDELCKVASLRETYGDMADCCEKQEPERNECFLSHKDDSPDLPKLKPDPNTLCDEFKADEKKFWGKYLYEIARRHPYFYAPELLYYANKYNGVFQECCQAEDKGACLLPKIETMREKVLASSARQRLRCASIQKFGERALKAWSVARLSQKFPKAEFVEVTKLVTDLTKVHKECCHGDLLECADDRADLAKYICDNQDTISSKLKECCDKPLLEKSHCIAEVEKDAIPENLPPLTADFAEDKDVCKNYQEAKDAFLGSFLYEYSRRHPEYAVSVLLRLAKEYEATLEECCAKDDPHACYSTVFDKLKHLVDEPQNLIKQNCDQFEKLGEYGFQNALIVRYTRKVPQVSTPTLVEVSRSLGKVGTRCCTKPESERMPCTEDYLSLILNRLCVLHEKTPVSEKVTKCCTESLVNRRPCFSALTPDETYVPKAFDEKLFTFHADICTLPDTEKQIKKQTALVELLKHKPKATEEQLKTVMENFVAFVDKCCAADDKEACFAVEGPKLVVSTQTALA
T3 sequence (P07724 25-608 limits assumed): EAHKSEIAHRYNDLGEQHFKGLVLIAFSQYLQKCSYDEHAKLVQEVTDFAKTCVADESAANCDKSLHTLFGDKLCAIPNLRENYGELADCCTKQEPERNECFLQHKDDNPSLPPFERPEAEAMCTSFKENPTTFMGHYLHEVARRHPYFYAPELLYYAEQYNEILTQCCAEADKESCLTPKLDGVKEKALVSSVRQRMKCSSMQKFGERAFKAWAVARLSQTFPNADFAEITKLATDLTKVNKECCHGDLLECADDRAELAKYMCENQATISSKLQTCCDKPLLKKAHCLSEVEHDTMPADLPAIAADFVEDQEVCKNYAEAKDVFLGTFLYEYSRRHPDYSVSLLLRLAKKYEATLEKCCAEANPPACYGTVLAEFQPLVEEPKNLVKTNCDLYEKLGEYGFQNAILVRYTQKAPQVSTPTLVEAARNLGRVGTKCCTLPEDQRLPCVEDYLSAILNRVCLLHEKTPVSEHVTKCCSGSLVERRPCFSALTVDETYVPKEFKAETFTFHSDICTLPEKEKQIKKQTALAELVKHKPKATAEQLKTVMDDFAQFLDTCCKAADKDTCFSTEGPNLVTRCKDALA
Sequence of rat serum albumin (P02770 25-608 limits assumed): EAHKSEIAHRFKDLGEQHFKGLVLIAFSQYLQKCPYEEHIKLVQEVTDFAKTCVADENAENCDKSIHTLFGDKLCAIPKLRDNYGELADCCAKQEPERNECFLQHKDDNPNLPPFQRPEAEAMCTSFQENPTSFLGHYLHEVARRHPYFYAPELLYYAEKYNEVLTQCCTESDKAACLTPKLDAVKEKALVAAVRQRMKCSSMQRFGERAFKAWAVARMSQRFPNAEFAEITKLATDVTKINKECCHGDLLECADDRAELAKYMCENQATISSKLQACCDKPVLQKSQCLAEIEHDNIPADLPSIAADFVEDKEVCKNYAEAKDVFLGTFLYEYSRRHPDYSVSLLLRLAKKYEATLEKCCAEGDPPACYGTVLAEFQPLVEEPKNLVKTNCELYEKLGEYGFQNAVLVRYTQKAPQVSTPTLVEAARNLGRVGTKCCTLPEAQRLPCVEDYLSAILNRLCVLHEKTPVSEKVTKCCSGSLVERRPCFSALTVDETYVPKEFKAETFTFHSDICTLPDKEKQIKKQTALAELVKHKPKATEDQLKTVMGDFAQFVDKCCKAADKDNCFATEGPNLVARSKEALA

B1: DX-321, Ac-AEGTGDRNMCKFSWIRSPAFCARADPE-X-K-NH2 (peptide)
peptide: AEGTGDRNMCKFSWIRSPAFCARADPEXK
modifications: N-terminal acetyl; X = 6-aminohexanoic acid before the C-terminal Lys; C-terminal amide; C-terminal Lys side chain carries fluorescein (anisotropy) or is coupled to NHS-Sepharose
As to B1, the Kd – broadly, a measure of binding affinity in units of concentration – in [1] is 75 µM; in assay [2], 0.9 µM; in assay [3], greater than 200 µM; in assay [4], greater than 200 µM; in assay [5], 82 µM; in [6], 83 µM. The Kd in [7] is 117 µM; in assay [8], greater than 200 µM; in assay [9], 84 µM; in assay [10] it was greater than 200 µM; in [11], greater than 200 µM; in assay [12] it was 84 µM. Besides, the equilibrium dissociation constant (Kd) is roughly 9 µM in [13]; 21 µM in assay [14]; greater than 200 µM in assay [15]; 38 µM in assay [16]; 95 µM in assay [17]; 21 µM in assay [18]. The Kd in assay [19] stood at 0.9 µM; in assay [20], 9 µM.
